Laboratory results published in patent USRE43497.

Assays:
Experiment in all cases: cell-based or functional assay
GAL4-AD = GAL4-AD (UniProt P04386)
[1] = target: Jab1-AD (GAL4 activation domain fusion with human p38^Jab1 amino acids 20-335) (human) (UniProt Q92905)
SV40-AD = target: SV40-AD

Chain of Jab1-AD (GAL4 activation domain fusion with human p38^Jab1 amino acids 20-335) (human) (Q92905 20-334 limits assumed): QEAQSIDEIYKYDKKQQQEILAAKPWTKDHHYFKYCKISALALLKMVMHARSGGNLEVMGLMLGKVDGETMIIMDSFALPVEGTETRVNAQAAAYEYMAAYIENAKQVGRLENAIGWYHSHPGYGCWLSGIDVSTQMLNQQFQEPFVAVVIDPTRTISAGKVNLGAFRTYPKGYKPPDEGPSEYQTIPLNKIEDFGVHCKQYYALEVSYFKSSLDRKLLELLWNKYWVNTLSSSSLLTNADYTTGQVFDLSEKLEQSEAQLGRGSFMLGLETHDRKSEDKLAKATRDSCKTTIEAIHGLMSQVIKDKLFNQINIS
Chain of GAL4-AD (P04386 768-881 limits assumed): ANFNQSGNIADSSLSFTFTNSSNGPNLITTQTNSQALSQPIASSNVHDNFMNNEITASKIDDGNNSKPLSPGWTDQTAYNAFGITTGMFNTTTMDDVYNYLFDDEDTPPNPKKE

beta-galactosidase activity, liquid media assay (yeast two-hybrid) (GAL4-AD)	beta-galactosidase activity, liquid media assay (yeast two-hybrid) [1]	Substance	beta-galactosidase activity, liquid media assay (yeast two-hybrid) (SV40-AD)
0.1 Miller units	0.3 Miller units	GAL4-BD (from UniProt P04386 1-147)	
		p53-BD	99 Miller units
